This data set concerns the molecule itself. The data set is described as follows: crystal structure.

B1: WlbA from Pseudomonas aeruginosa (enzyme)
chain: MASKNFALIGAAGYIAPRHMRAIKDTGNCLVSAYDINDSVGIIDSISPQSEFFTEFEFFLDHASNLKRDSATALDYVSICSPNYLHYPHIAAGLRLGCDVICEKPLVPTPEMLDQLAVIERETDKRLYNILQLRHHQAIIALKDKVAREKSPHKYEVDLTYITSRGNWYLKSWKGDPRKSFGVATNIGVHFYDMLHFIFGKLQRNVVHFTSEYKAAGYLEYEQARVRWFLSVDANDLPESVKGKKPTYRSITVNGEEMEFSEGFTDLHTTSYEEILAGRGYGIDDARHCVETVNTIRSAVIVPASDNEGHPFVAALAR
For orientation: stoichiometry N means the number of molecules, sites or subunits per partner or assembly. For B1, the “stoichiometry N” value came to 4.

These data come from publication PMC4241754 (Biochemistry, 2010).
